# Measurements reported in patent US20110059092A1 (INNOGENETICS, published 2011).
# Substitutions are numbered along the chain they refer to. Ends that are not written are not given here. * marks the point of attachment. Biotin = O=C1N[C@H]2[C@H](CS[C@H]2CCCCC(=O)*)N1
# T1: Aβ6-13-bio (not fully specified (C-terminus); printed as H6DSGYEVH13GK-biotin)
# T1 construct: Synthetic biotinylated peptide, shifted two amino acids N-terminal compared with Aβ8-15; also called Aβ6-13 peptide
# T1 peptide: HDSGYEVHGK(Biotin)
# T2: Aβ8-15-bio (not fully specified (C-terminus); printed as S8GYEVHHQ15GK-biotin)
# T2 construct: Synthetic biotinylated peptide with a free N-terminus at Ser8 of Aβ; also called IGP-2258; Aβ8-15 peptide
# T2 peptide: SGYEVHHQGK(Biotin)
# B1: TeiA 1.7 (antibody, IgG1, V domains shown)
# VH: GGLVQPGGSLRLSCATSGFTFSDFYMEWVRQPPGRRLEWIAASRDKAKDYTTEYSASVKGRFIVSRDTSQSIFYLQMNALRSEDTAIYYCATYFSYAMDYWGLGTSVTVSS
# VL: SSLTVTAGEKVTMNCKSSQNLLNSGNQVNYLTWFQQKPGQPPKLLIYWASTRESGVPDRFIGSGSGTDFTLTINSVQAEDLAVYYCQNDYRYPLTFGAG
# notes: Mouse monoclonal, IgG1; The printed variable regions seem N-terminally incomplete (primer region missing); also called 2.8.A3; 2.8.A3.F8
# B2: TeiA 2b.6 (antibody, IgG2b, V domains shown)
# VH: GGLVQPGGSLRLSCATSGFTFTDFYMEWVRQPPGKRLEWIAASRNKANGYTTEYSASVKGRFIVSRDTSQGILYLQMSALRAEDTAIYYCAIYRYYAMDYWGQGTSVTVSS
# VL: SSLTVTAGEKVTMSCKSSQSLFNSGRQTNYLTWFQQRPGQAPKLLIYWASTRGSGVPDRFTGSGSGTEFTLTISSVQAEDLAVYYCQNDYTYPLTFGAG
# notes: Mouse monoclonal, IgG2b; also called 2.13.E5; 2.13.E5.E4
# B3: TeiA 1.1 (antibody, IgG1, V domains shown)
# VH: GGLVQPGGSLRLSCATSGFTFSDFFIEWVRQPPGKRLEWITASRNKNYDYKTEYSASVKGRFIVSRDTSQSILYLQMNALRAEDTAIYYCAIYRHYAMDYWGQGTSVTVSS
# VL: B2 VL with K16T, R26T, F34Y, R37K, A41P, G53E, E68D
# notes: Mouse monoclonal, IgG1; The printed variable regions seem N-terminally incomplete (primer region missing); also called 3.46.B10; 3.46.B10.E7
# Target: T1, Aβ6-13-bio
# Experiment: Luminex: biotinylated peptide on avidin beads, anti-mouse phycoerythrin detection
# Source text: (§1) To determine the specificity of the antibody a peptide was used which is shifted two amino-acids N-terminal as compared to the Aβ₈₋₁₅, the Aβ₆₋₁₃ peptide. The biotinylated versions of these peptides are used in order to capture it efficiently to avidin Luminex beads. […] The results presented in Table 3 are raw data expressed as Mean Fluorescence Intensity (MFI).
row,Binder,Luminex assay (MFI)
1,B1,5
2,B2,51
3,B3,24

# Target: T2, Aβ8-15-bio
# Experiment: as above
# Source text: as §1
row,Binder,Luminex assay (MFI)
1,B1,1720
2,B2,1690
3,B3,1820

# Target: T2, Aβ8-15-bio
# Experiment: bridging assay: BSA-coupled Aβ8-15 peptide (PG127) captures one binding site, biotinylated peptide detects
# Protocol: Spleen of both mice were prepared and fused to SP2/0 cells. After plating, 66 plates (±3000 clones) were screened. […] In the bridging assay, BSA coupled peptide IGP-128, PG127 (see Table 3) was used to capture one binding site of the antibody and a biotinylated peptide was used to detect the captured antibody in a so-called bridging assay. This assay gives an indication on the affinity of the antibody: a high-affinity antibody will give a higher signal than a lower affinity antibody. Indeed ‘two classes’ of antibodies have been identified.
row,Binder,Bridging assay (OD450)
1,B1,0.222
2,B2,4
3,B3,3.76
